How the values were obtained:
Format in all cases: biochemical
[1] = Multiplexed β-glucosidase/β-xylosidase assay with known enzymes, cellobiose substrate; details: equal amounts CB-F17 and XB-F17 (0.1 mM each), 1 h
Text: (§1) It can be difficult to discriminate between several products in simultaneous reactions using conventional spectroscopic methods since these reactions typically yield the same outputs and there are only a few unique absorption or emission patterns that can be resolved separately. In contrast, mass spectrometry can resolve thousands of ions and therefore we have discovered that it is well-suited for the parallel detection of large numbers of reaction products where the substrates and occurring products differ in mass. This is the case, for example, when using pentose and hexose-based substrates at the same time. The hydrolysis of polysaccharides with identical masses (e.g. cellobiose and maltose) can even be analyzed in the same run by using different chemical structures in the linker or perfluorinated tags of varying length. Thus, potentially dozens of enzymatic conversions can be tested simultaneously using this method. Here both β-glucosidase and β-xylosidase activities were detected simultaneously utilizing a substrate cocktail comprised of equal amounts of CB-F17 and XB-F17. In the non-enzyme control only signals for cellobiose and xylobiose were detectable (FIG. 5a). […]
(§2) In each case 0.5-1 μL per quenched reaction sample was spotted onto the NIMS surface and removed after an incubation of ˜30 s. […] Enzyme activities were determined by forming product-to-substrate ratios.

[2] = Multiplexed β-glucosidase/β-xylosidase assay with known enzymes, xylobiose substrate; details: equal amounts CB-F17 and XB-F17 (0.1 mM each), 1 h
Text: as §1, §2

[3] = Separate analysis of β-xylosidase activity (NIMS); details: XB-F17 substrate, 1 h
Experimental: The separate characterization of β-glucosidase and β-xylosidase activity was carried out in reaction volumes of 20-50 μL, by mixing 0.1 mM cellobiose with 8 μg of NS50010 in 50 mM sodium acetate buffer (pH 4.8), or 0.1 mM xylobiose with 0.13 μg (in […]) or 0.33 μg (in 50 μL) of 1,4-β-D-xylosidase in 50 mM potassium phosphate buffer (pH 7.5) with 1 mg/mL BSA. For the competition studies with cellobiose, samples additionally contained 10, 25, or 50 mM of unlabeled cellobiose (Sigma-Aldrich; St. Louis, Mo.). Other buffers used for the determination of the pH optima were McIlvaine's citrate/phosphate buffer (pH 2.6 and 6.0), 50 mM Tris buffer (pH 9.0) for NS50010, and 50 mM potassium phosphate buffer (pH 6.0), 50 mM Tris buffer (pH 9.0), 50 mM sodium borate buffer (pH 11.0), all with 1 mg/mL BSA for the β-xylosidase. Samples were incubated for 1 h at 35° C. (β-xylosidase) or 50° C. […]
In FIG. 4a, the determined temperature optima for the used enzymes were 50-60° C. for β-glucosidase (black) and 35° C. for β-xylosidase (gray). In FIG. 4b, the determined pH optima were around pH 4.8 for β-glucosidase (black) and around pH 7.5 for β-xylosidase (gray). […]
as §2

B1: β-xylosidase: 1,4-β-D-xylosidase from Bacillus pumilus purchased from Megazyme (protein, UniProt P07129 1-535, looked up)
Beta-xylosidase: MKITNPVLKGFNPDPSICRAGEDYYMAVSTFEWFPGVQIYHSKDLIHWRLAARPLQKTSQLDMKGNPDSGGVWAPCLSYADGQFWLIYSDIKVVDGPFKDGHNYLVTADAVDGEWSDPVRLNSSGFDPSLFHDPSGKKYVLNMLWDHREKHHSFAGIALQEYSVSEKKLVGERKVIFKGTPIKLTEAPHLYYINDVYYLLTAEGGTRYEHAATIARSSRIDGPYEVHPDNPILTAFHAPSHPLQKCGHASIVQTHTNEWYLAHLTGRPIHSSKESIFQQRGWCPLGRETAIQKLEWKDGWPYVVGGKEGLLEVEAPAMSVKEFSPTYHIVDEFKDSSLNRHFQTLRIPFTDQIGSVTENPHHLRLYGQESLTSKFTQAFVARRWQSFYFEAETAVSFFPKNFQQAAGLVNYYNTENWTALQVTYDDALGRILELSVCENLAFSQPLIKKIIIPDEIPYVYLKVTVQRETYTYSYSFDQQEWEKIDVPLESTHLSDDFIRGGGFFTGAFVGMQCQDTSGERLPADFKYFRYEETTE
Question: With B1 as the molecule, how does the “cleavage of cellobiose (CB-F17) in substrate cocktail” value [1] read?
Answer: The value was “no enzymatic cleavage of cellobiose”.

Question: And the “cleavage of xylobiose (XB-F17) in substrate cocktail” value [2]?
Answer: Its value is “conversion of xylobiose to xylose”.

Question: What about the temperature optimum [3] of the same molecule?
Answer: Its temperature optimum is 35 °C.

Question: What about the pH optimum ([3]; 35° C.) of the same molecule?
Answer: Its pH optimum is ~7.5 pH.

— patent US10240180B2, “Multiplexed screening of enzyme activities using nanostructure-initiator mass spectrometry” (The Regents of the University of California, priority 2011, dated 2019)
